Paper PMC11444770, “Moesin contributes to heat shock gene response through direct binding to the Med15 subunit of the Mediator complex in the nucleus” (Open Biology, 2024)

T1: GST-Med15 (Drosophila melanogaster, UniProt Q9Y149 1-749)
T1 construct: Med15, Drosophila Mediator subunit; CDS amplified with the primers Med15 pGex6P-1 Fw/Rev (start to stop codon) and cloned into pGex6P-1; source: E. coli SixPack, purified on Glutathione Sepharose 4B, kept on the beads; not shown: GST, N-terminal, kept
T1 sequence (looked up): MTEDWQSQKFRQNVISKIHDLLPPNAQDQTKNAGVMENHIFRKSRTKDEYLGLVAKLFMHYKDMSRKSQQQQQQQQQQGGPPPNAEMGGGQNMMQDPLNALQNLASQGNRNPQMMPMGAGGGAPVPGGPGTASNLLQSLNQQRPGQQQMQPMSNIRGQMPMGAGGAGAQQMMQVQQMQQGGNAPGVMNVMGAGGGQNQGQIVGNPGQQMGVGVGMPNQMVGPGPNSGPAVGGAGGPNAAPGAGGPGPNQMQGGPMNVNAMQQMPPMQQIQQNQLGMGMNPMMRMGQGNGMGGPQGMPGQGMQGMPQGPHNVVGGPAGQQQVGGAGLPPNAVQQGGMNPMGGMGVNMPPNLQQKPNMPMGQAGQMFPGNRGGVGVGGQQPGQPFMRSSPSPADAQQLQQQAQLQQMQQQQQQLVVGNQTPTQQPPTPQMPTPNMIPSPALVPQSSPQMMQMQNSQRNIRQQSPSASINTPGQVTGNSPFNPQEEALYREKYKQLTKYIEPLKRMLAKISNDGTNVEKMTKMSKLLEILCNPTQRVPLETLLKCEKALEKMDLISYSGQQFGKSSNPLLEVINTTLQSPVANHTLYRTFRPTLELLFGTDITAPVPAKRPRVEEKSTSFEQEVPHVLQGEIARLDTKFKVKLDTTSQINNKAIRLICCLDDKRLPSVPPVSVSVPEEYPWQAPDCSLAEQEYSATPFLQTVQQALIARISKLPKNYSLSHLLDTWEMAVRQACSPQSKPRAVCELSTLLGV

B1: 6xHis-FERM-Moe (domain or fragment, Drosophila melanogaster, UniProt P46150 1-484, looked up)
chain: MSPKALNVRVTTMDAELEFAIQSTTTGKQLFDQVVKTIGLREVWFFGLQYTDSKGDSTWIKLYKKVMNQDVKKENPLQFRFRAKFYPEDVAEELIQDITLRLFYLQVKNAILTDEIYCPPETSVLLASYAVQARHGDHNKTTHTAGFLANDRLLPQRVIDQHKMSKDEWEQSIMTWWQEHRSMLREDAMMEYLKIAQDLEMYGVNYFEIRNKKGTDLWLGVDALGLNIYEQDDRLTPKIGFPWSEIRNISFSEKKFIIKPIDKKAPDFMFFAPRVRINKRILALCMGNHELYMRRRKPDTIDVQQMKAQAREEKNAKQQEREKLQLALAARERAEKKQQEYEDRLKQMQEDMERSQRDLLEAQDMIRRLEEQLKQLQAAKDELELRQKELQAMLQRLEEAKNMEAVEKLKLEEEIMAKQMEVQRIQDEVNAKDEETKRLQDEVEDARRKQVIAAEAAAALLAASTTPQHHHVAEDENENEEELT
notes: Drosophila Moesin, amino acids 1-484 (FERM-Moe); The methods say C-terminal 6xHis tagging in pDEST17, while the label 6xHis-FERM-Moe puts the tag first; as far as I recall pDEST17 adds an N-terminal His tag; also called 6xHis-tagged FERM-Moesin; source: E. coli, purified (HisPur Cobalt Resin or Ni-NTA beads); not shown: 6xHis, C-terminal, kept
B2: GST-FERM-Moesin (domain or fragment, Drosophila melanogaster, UniProt P46150 1-484, looked up)
chain: B1 chain
notes: pGex6P-1 vector; also called GST-Moesin; source: E. coli SixPack, purified on Glutathione Sepharose 4B, kept on the beads; not shown: GST, N-terminal, kept
B3: 6xHis-Hsf (natural protein, Drosophila melanogaster, UniProt P22813 1-691, looked up)
chain: MSRSRSSAKAVQFKHESEEEEEDEEEQLPSRRMHSYGDAAAIGSGVPAFLAKLWRLVDDADTNRLICWTKDGQSFVIQNQAQFAKELLPLNYKHNNMASFIRQLNMYGFHKITSIDNGGLRFDRDEIEFSHPFFKRNSPFLLDQIKRKISNNKNGDDKGVLKPEAMSKILTDVKVMRGRQDNLDSRFSAMKQENEVLWREIASLRQKHAKQQQIVNKLIQFLITIVQPSRNMSGVKRHVQLMINNTPEIDRARTTSETESESGGGPVIHELREELLDEVMNPSPAGYTAASHYDQESVSPPAVERPRSNMSISSHNVDYSNQSVEDLLLQGNGTAGGNILVGGAASPMAQSVSQSPAQHDVYTVTEAPDSHVQEVPNSPPYYEEQNVLTTPMVREQEQQKRQQLKENNKLRRQAGDVILDAGDILVDSSSPKAQRTSIQHSTQPDVMVQPMIIKSEPENSSGLMDLMTPANDLYSVNFISEDMPTDIFEDALLPDGVEEAAKLDQQQKFGQSTVSSGKFASNFDVPTNSTLLDANQASTSKAAAKAQASEEEGMAVAKYSGAENGNNRDTNNSQLLRMASVDELHGHLESMQDELETLKDLLRGDGVAIDQNMLMGLFNDSDLMDNYGLSFPNDSISSEKKAPSGSELISYQPMYDLSDILDTDDGNNDQEASRRQMQTQSSVLNTPRHEL
notes: heat shock factor (Hsf), the Drosophila Hsf1 homologue; The methods say C-terminal 6xHis tagging in pDEST17, while the label 6xHis-Hsf puts the tag first; as far as I recall pDEST17 adds an N-terminal His tag; also called heat shock factor; source: E. coli, purified (HisPur Cobalt Resin or Ni-NTA beads); not shown: 6xHis, C-terminal, kept
B4: GST-Med17 (natural protein, Drosophila melanogaster, UniProt Q9VEC1 1-642, looked up)
chain: MSNSVNISVETTCENQIREIGYDGTELYQPPPTLSESLAKCAARIDFSKTSLDDLKKEEKSAAAAADEDKDATQFQESLWPWDAVRNKLKDALTEICVLSDVISIAKDKRYLVLDPLLEEADDTKPIVQVYSRKKAISQAAQVLLSGAERLRNAHSEQRNRNVSDFHIELLRLRQNWRLKKVSNAIIGDLSYRTAGSKFGMSGTFEVTKAEETGDEDTASSSNSSSSVSGNNGMQLKASSALRVIVPAELQGVAYIKVITQKDQEDLCTAQLNLMGHGPNITAQVGVWQKTLEFAQNVLFCKELFAQLAREAIQLQAPIPHVVIGNQIRATLLPNIQLIISLCHSTTFDSSQPAPINDHDHVLEHSLHQLLREVHYKNSHHPFPHPASAPLGPTKKRMLAGPMAADRETLLDMTKSQTILEQIIAQAQHIFMRKRTQYVLDTLARDVKDPQIVSHWNAMNSPTMSCVKINIVTHGYDAIGRTSLVIHVKERSLKCICRDGRVMRLSYEPQELRDLILCQINSHQISCLISLARCMSWTVLSNSNHLGIGKVEPLGNASSCLLASPNSDRMIAVQIRCDPQIDVKVYIARSPRQDFFPSPLVPEKLWENLGGTFKEVRFDKIEGKSFLNKMEFLMASLTSNTA
notes: Med17, Drosophila Mediator subunit; CDS amplified with the primers Med17 pGex6P-1 Fw/Rev (start to stop codon) and cloned into pGex6P-1; source: E. coli SixPack, purified on Glutathione Sepharose 4B, kept on the beads; not shown: GST, N-terminal, kept

Key:
Test in all cases: pull-down; GST-6xHis pull-down: GST-tagged baits immobilised on glutathione beads, purified 6xHis-tagged preys; 50 mM Hepes pH 7.5, 150 mM NaCl, 2 mM MgCl2, 1 mM EGTA, 1 mM DTT, 0.1% Triton X-100, 0.5 mg/ml BSA; 1.5 h at 4°C; western blot
Settings in all cases: both partners purified
GST-Med15 = target: T1, GST-Med15
GST-Med17 = target: B4
6xHis-Hsf = target: B3

binding result (GST-Med15) | binding result (GST-Med17) | binding result (6xHis-Hsf) | Binder
binds | binds | – | B1
– | – | binds | B2
binds | – | – | B3
– | – | binds | B4
